Measurements from US20150299265A1 (Molecular Partners, published 2015).

B1: DARPin #22 (designed binder)
chain: MRGSHHHHHHGSDLGDKLLQSDLGIKLLFAAAKSQDDEVRILLAAGADVNAKDFQSVTPLHIAAQSGHLEIVEVLLKAGADVNAKDVTGDTPLHLAAQHGHLEIVEVLLKAGADVNAQDERGWTPADLAADWGHEDIAEVLQKLGGGGSGGGGSRSDLGIKLLQAANLGQDDEVRILLATGADVNAKDSIGQTPLHWAARRGHLEIVEVLLKAGADVNAKDEYGVTPLHLAASLGHLEIVEVLLKAGADVNAQDESGETPADLAALHGHEDIAEVLQKLN
B2: DARPin #45 (designed binder)
chain: MRGSHHHHHHGSDLGKKLLEAARAGQDDEVRILMANGADVNAKDFYGITPLHLAAAYGHLEIVEVLLKHGADVNAHDWNGWTPLHLAAKYGHLEIVEVLLKHGADVNAIDNAGKTPLHLAAAHGHLEIVEVLLKYGADVNAQDKFGKTAFDISIDNGNEDLAEILQKLGGGGSGGGGSRSDLGKKLLEAARAGQDDEVRILMANGADVNAKDEYGLTPLYLATAHGHLEIVEVLLKNGADVNAVDAIGFTPLHLAAFIGHLEIAEVLLKHGADVNAQDKFGKTAFDISIGNGNEDLAEILQKLN
B3: DARPin #46 (designed binder)
chain: MRGSHHHHHHGSDLGKKLLEAARAGQDDEVRILMANGADVNAKDFYGITPLHLAAAYGHLEIVEVLLKHGADVNAHDWNGWTPLHLAAKYGHLEIVEVLLKHGADVNAIDNAGKTPLHLAAAHGHLEIVEVLLKYGADVNAQDKFGKTAFDISIDNGNEDLAEILQKLGGGGSGGGGSRSDLGKKLLEAARAGQDDEVRILMANGADVNATDIHGHTPLHLAAAMGHLEIVEVLLKNGADVNANDWRGFTPLHLAALNGHLEIVEVLLKNGADVNATDTAGNTPLHLAAWFGHLEIVEVLLKNGADVNAQDKFGKTAFDISIDNGNEDLAEILQKLN
B4: DARPin #47 (designed binder)
chain: MRGSHHHHHHGSDLGDKLLQSDLGIKLLFAAAKSQDDEVRILLAAGADVNAKDFQSVTPLHIAAQSGHLEIVEVLLKAGADVNAKDVTGDTPLHLAAQHGHLEIVEVLLKAGADVNAQDERGWTPADLAADWGHEDIAEVLQKLGGGGSGGGGSRSDLGIKLLVAAAQGQDDEVRILLAAGADVNAKDQQGATPLHLAAWKGHLEIVEVLLKAGADVNAKDLSGDTPLHIAAWFGHLEIVEVLLKAGADVNAQDTEGYTPADLAALYGHEDIAEVLQKLN
B5: DARPin #27 (designed binder)
chain: MRGSHHHHHHGSDLGVKLLWAAARGQDDEVRILLAAGADVNAKDFQGITPLHIAATNGHLEIVEVLLKAGADVNAKDITGETPLHHAADSGHLEIVEVLLKAGADVNAQDKAGVTPADLAAAWGHEDIAEVLQKLGGGGSGGGGSRSDLGIKLLQAANLGQDDEVRILLATGADVNAKDSIGQTPLHWAARRGHLEIVEVLLKAGADVNAKDEYGVTPLHLAASLGHLEIVEVLLKAGADVNAQDESGETPADLAALHGHEDIAEVLQKLN
B6: DARPin #64 (designed binder)
chain: MRGSHHHHHHGSDLGKKLLEAARAGQDDEVRILMANGADVNAKDYFSHTPLHLAARNGHLKIVEVLLKAGADVNAKDFAGKTPLHLAANDGHLEIVEVLLKHGADVNAQDIFGKTPADIAADAGHEDIAEVLQKLGGGGSGGGGSGGGGSGGGGSRSDLGAKLLSDLGVKLLWAAARGQDDEVRILLAAGADVNAKDFQGITPLHIAAQSGHLEIVEVLLKAGADVNAKDVTGDTPLHLAAQHGHLVIVEVLLKAGADVNAQDERGWTPADLAADWGHEDIAEVLQKLGGGGSGGGGSRSDLGKKLLEAARAGQDDEVRILMANGADVNAKDEYGLTPLYLATAHGHLEIVEVLLKNGADVNAVDAIGFTPLHLAAFIGHLEIAEVLLKHGADVNAQDKFGKTAFDISIGNGNEDLAEILQKLN
B7: DARPin #65 (designed binder)
chain: MRGSHHHHHHGSDLGAKLLSDLGVKLLWAAARGQDDEVRILLAAGADVNAKDFQGITPLHIAAQSGHLEIVEVLLKAGADVNAKDVTGDTPLHLAAQHGHLVIVEVLLKAGADVNAQDERGWTPADLAADWGHEDIAEVLQKLGGGGSGGGGSRSDLGKKLLEAARAGQDDEVRILMANGADVNAKDEYGLTPLYLATAHGHLEIVEVLLKNGADVNAVDAIGFTPLHLAAFIGHLEIAEVLLKHGADVNAQDKFGKTAFDISIGNGNEDLAEILQKLNKLGGGGSGGGGSGGGGSGGGGSRSDLGKKLLEAARAGQDDEVRILMANGADVNAKDYFSHTPLHLAARNGHLKIVEVLLKAGADVNAKDFAGKTPLHLAANDGHLEIVEVLLKHGADVNAQDIFGKTPADIAADAGHEDIAEVLQKLN
B8: DARPin #63 (designed binder)
chain: MRGSHHHHHHGSDLGAKLLSDLGVKLLWAAARGQDDEVRILLAAGADVNAKDFQGITPLHIAAQSGHLEIVEVLLKAGADVNAKDVTGDTPLHLAAQHGHLVIVEVLLKAGADVNAQDERGWTPADLAADWGHEDIAEVLQKLGGGGSGGGGSRSDLGKKLLEAARAGQDDEVRILMANGADVNAKDEYGLTPLYLATAHGHLEIVEVLLKNGADVNAVDAIGFTPLHLAAFIGHLEIAEVLLKHGADVNAQDKFGKTAFDISIGNGNEDLAEILQKAAGGGSGGGSC
modifications: PEGylated at its C-terminal Cys residue
B9: DARPin #68 (designed binder)
chain: MRGSHHHHHHGSDLGAKLLSDLGVKLLWAAARGQDDEVRILLAAGADVNAKDFQGITPLHIAAQSGHLEIVEVLLKAGADVNAKDVTGDTPLHLAAQHGHLVIVEVLLKAGADVNAQDERGWTPADLAADWGHEDIAEVLQKAAGSPTPTPTTPTPTPTTPTPTPTGSDLGKKLLEAARAGQDDEVRILMANGADVNAKDEYGLTPLYLATAHGHLEIVEVLLKNGADVNAVDAIGFTPLHLAAFIGHLEIAEVLLKHGADVNAQDKFGKTAFDISIGNGNEDLAEILQKAA
B10: DARPin #67 (designed binder)
chain: MRGSHHHHHHGSDLGAKLLSDLGVKLLWAAARGQDDEVRILLAAGADVNAKDFQGITPLHIAAQSGHLEIVEVLLKAGADVNAKDVTGDTPLHLAAQHGHLVIVEVLLKAGADVNAQDERGWTPADLAADWGHEDIAEVLQKAAGGGGSDLGKKLLEAARAGQDDEVRILMANGADVNAKDEYGLTPLYLATAHGHLEIVEVLLKNGADVNAVDAIGFTPLHLAAFIGHLEIAEVLLKHGADVNAQDKFGKTAFDISIGNGNEDLAEILQKAA
B11: DARPin #66 (designed binder)
chain: MRGSHHHHHHGSDLGAKLLSDLGVKLLWAAARGQDDEVRILLAAGADVNAKDFQGITPLHIAAQSGHLEIVEVLLKAGADVNAKDVTGDTPLHLAAQHGHLVIVEVLLKAGADVNAQDERGWTPADLAADWGHEDIAEVLQKAAGSDLGKKLLEAARAGQDDEVRILMANGADVNAKDEYGLTPLYLATAHGHLEIVEVLLKNGADVNAVDAIGFTPLHLAAFIGHLEIAEVLLKHGADVNAQDKFGKTAFDISIGNGNEDLAEILQKAA

target: Human HER2 expressed on tumour cells (human, UniProt P04626 23-1255); experiment: cell-based or functional assay

In order of falling “% activity vs. DARPin # 41, BT474 cell proliferation” value:
1. B2  100%
2. B3  100%
3. B6  100%
4. B7  100%
5. B8  100%
6. B9  100%
7. B10  100%
8. B11  100%
9. B1  60.1%
10. B5  37.8%
11. B4  6.8%

In order of rising “IC50 [nM], inhibition of BT474 cell proliferation (BrdU)” value:
1. B2  1.55 nM
2. B8  1.77 nM
3. B6  2.31 nM
4. B3  3.34 nM
5. B1  4.03 nM
6. B11  4.06 nM
7. B7  4.07 nM
8. B5  4.57 nM
9. B10  4.87 nM
10. B9  5.35 nM
